Seven molecules from patent US20020142009A1 can be followed below.

For series [1], the target named is rhC5a (human (printed as rhC5a)) (UniProt P01031). Description: cell-based or functional assay.
In series [2] the target is T1, rhC5a, P01031.
T1 chain: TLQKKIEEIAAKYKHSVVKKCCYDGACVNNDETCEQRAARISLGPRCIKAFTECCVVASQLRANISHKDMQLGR

Numbering of substitutions follows the chain as printed. Some results are limits rather than exact numbers.

In series [1], “SCPA49, streptococcal C5a peptidase of group A Streptococcus serotype M49 strain CS101, as made by the bacteria (from UniProt P58099 2-1181) (enzyme)” registered a Percent inhibition of C5a induced PMN adherence of 54.5%.

With “SCPA6, streptococcal C5a peptidase of group A Streptococcus serotype M6 strain UAB200, as made by the bacteria (enzyme)”, in series [1], the Percent inhibition of C5a induced PMN adherence is 58.8%.

B1: recombinant wild-type SCPA49 (Asn32 through His1139) (protein)
chain: NTVTEDTPATEQAVETPQPTTVSEEVPSSKETKTPQTPDDAEETVADDANDLAPQAPAKTPDTSATSKATIRDLNDPSQVKTLQEKAGKGAGTVVAVIDAGFDKNHEAWRLTDKAKARYQSKEDLEKAKKEHGITYGEWVNDKVAYYHDYSKDGKTAVDQEHGTHVSGILSGNAPSETKEPYRLEGAMPEAQLLLMRVEIVNGLADYARNYAQAIRDAVNLGAKVINMSFGNAALAYANLPDETKKPFVYAKSKGVRIVTTAGNDSSFGGKTRLPLADHPDYGVVGTPAAADSTLTVASYSPDNQLTETAMVKTDDQQDKEMPVLSTNRFEPNKAYDYAYANRGMKEDDFKDVKGKIALIERSDIDFTDKIANAKKAGAVGVLIYDNQDKGFPIELPNVDQMPAAFISRKDGLLLKDNSQKTITFNATPKVLPTASGTKLSRFSSWGLTADGNIKPDIAAPGQDILSSAANNKYAKLSGTSMSAPLVAVIMGLLQKQYETQYPDMTQSERLDLAKKVLMSSATALYDEDEKAYFSPRQQGAGAVDAKKASEATMYVTDKDNTSSKVHLNNVSDKFEVTVTVHNKSDKPHELYYQATVQTDKVDGKHFALAPKALIETSWQKITIPANSSKQVTIPIDISQFSKDLLAQMKNGYFLEGFVRIKQDPTKEELMSIPYIGFRGDFGNLSALEKPLYDSKDGSSYYHEEISDAKDQLDGDGLQFYALKNDFTALTTESNPWTIINVVKEGVENIEDIESSEITETIFAGTFAKQDDDRHYYIHRHANGKPYAAISPNGDGNRDYVQFHGTFLRNAKNLVAEVLDKEGNVVWTSEVTEQVVKNYNNDLASTLGSTRFEISRWDGKDKDAKVVANGTYTYRVRYTPISSGAKEQHTDFDVIVDNTTPEVATSATFSTEDRRLTLASKPQTSQPVYRERIAYTYMDEDLPTTEYISPNEDGTFTLPEEAETMEGATVPLKMSDFTYVVEDMAGNITYTPVTKLLEGHSNKPEQDGSDQAPDKKPETKPEQDGSDQAPDKKPETKPGQDGSGQTPDKKPETKPEKDSSGQTPGKTPQKGQPSRTLEKRSSKRALATKASTRDQLPTTNDKDTNRLH
In series [2], B1 registered an Activity (U/mg*10^-3), PMN adherence assay of 170 U/mg·10^-3.

B2: SCPA49D130A (protein)
chain: B1 chain with D99A
In the case of B2, the Activity (U/mg*10^-3), PMN adherence assay in series [2] is under 20 U/mg·10^-3.

B3: SCPA49N295A (protein)
chain: B1 chain with N264A
Molecule B3 yielded an Activity (U/mg*10^-3), PMN adherence assay in series [2] of under 20 U/mg·10^-3.

B4: SCPA49S512A (protein)
chain: B1 chain with S481A
For the molecule B4, the Activity (U/mg*10^-3), PMN adherence assay in series [2] is under 20 U/mg·10^-3.

B5: ΔSCPA49 (truncated recombinant SCPA49, Thr63 through His1031) (protein)
chain: TKTPQTPDDAEETVADDANDLAPQAPAKTPDTSATSKATIRDLNDPSQVKTLQEKAGKGAGTVVAVIDAGFDKNHEAWRLTDKAKARYQSKEDLEKAKKEHGITYGEWVNDKVAYYHDYSKDGKTAVDQEHGTHVSGILSGNAPSETKEPYRLEGAMPEAQLLLMRVEIVNGLADYARNYAQAIRDAVNLGAKVINMSFGNAALAYANLPDETKKPFVYAKSKGVRIVTTAGNDSSFGGKTRLPLADHPDYGVVGTPAAADSTLTVASYSPDNQLTETAMVKTDDQQDKEMPVLSTNRFEPNKAYDYAYANRGMKEDDFKDVKGKIALIERSDIDFTDKIANAKKAGAVGVLIYDNQDKGFPIELPNVDQMPAAFISRKDGLLLKDNSQKTITFNATPKVLPTASGTKLSRFSSWGLTADGNIKPDIAAPGQDILSSAANNKYAKLSGTSMSAPLVAVIMGLLQKQYETQYPDMTQSERLDLAKKVLMSSATALYDEDEKAYFSPRQQGAGAVDAKKASEATMYVTDKDNTSSKVHLNNVSDKFEVTVTVHNKSDKPHELYYQATVQTDKVDGKHFALAPKALIETSWQKITIPANSSKQVTIPIDISQFSKDLLAQMKNGYFLEGFVRIKQDPTKEELMSIPYIGFRGDFGNLSALEKPLYDSKDGSSYYHEEISDAKDQLDGDGLQFYALKNDFTALTTESNPWTIINVVKEGVENIEDIESSEITETIFAGTFAKQDDDRHYYIHRHANGKPYAAISPNGDGNRDYVQFHGTFLRNAKNLVAEVLDKEGNVVWTSEVTEQVVKNYNNDLASTLGSTRFEISRWDGKDKDAKVVANGTYTYRVRYTPISSGAKEQHTDFDVIVDNTTPEVATSATFSTEDRRLTLASKPQTSQPVYRERIAYTYMDEDLPTTEYISPNEDGTFTLPEEAETMEGATVPLKMSDFTYVVEDMAGNITYTPVTKLLEGH
Regarding B5, the “peptidase activity, PMN adherence assay” value in series [2] was “lacked peptidase activity”.
